# B1: SseB: Recombinant SseB protein of Salmonella, codon optimized, expressed in E. coli (protein, UniProt Q7BVH7 1-196, looked up)
# Secreted effector protein SseB: MSSGNILWGSQNPIVFKNSFGVSNADTGSQDDLSQQNPFAEGYGVLLILLMVIQAIANNKFIEVQKNAERARNTQEKSNEMDEVIAKAAKGDAKTKEEVPEDVIKYMRDNGILIDGMTIDDYMAKYGDHGKLDKGGLQAIKAALDNDANRNTDLMSQGQITIQKMSQELNAVLTQLTGLISKWGEISSMIAQKTYS
# modifications: recombinant, codon optimized, E. coli expressed
# Key:
# [1] = system: draining lymph node cells of HLA-DR1 transgenic mice; test: Murine IFN-γ ELISpot, HLA-DR1 transgenic mice primed with SseB; conditions: mouse, in vivo
# Text: (§1) Mice transgenic for HLA-DR1 (that is, HLA-DRA1*0101/HLA-DRB1*0101) and HLA-DR4 (that is, HLA-DRA1*0101/HLA-DRB1*0401)[24]–[26] were bred and housed in the Centre for Biological Services at the Hammersmith campus, Imperial College London, UK, in accordance with Home Office regulations and College ethics review. Both transgenic lines are maintained on a C57BL/6 background as homozygotes for knockout of murine MHC Class II H2-Aβ.[27]
# (§2) HLA-DR1 or HLA-DR4 transgenic mice were primed, by subcutaneous injection into the footpad, with 25 μg of recombinant SseB protein administered as a 1 : 1 emulsion with TiterMax® Gold (CytRx Corporation, Los Angeles, CA). Ten days after priming, popliteal draining lymph nodes were harvested and stimulated, in triplicate, at 2 × 10^5 cells per well with 25 μg of SseB peptide or recombinant protein in pre-coated murine IFN-γ ELISpot plates (2BScientific, Upper Heyford, Oxfordshire, UK). Culture medium was RPMI-1640 containing 2 mM L-glutamine, 50 U/ml penicillin G, 50 μg/ml streptomycin sulphate, 50 μM β-mercaptoethanol and 10% fetal calf serum. Cells were cultured at 37° and in 5% CO2 for 72 hr before assay development using a biotinylated anti-IFN-γ antibody, a horseradish peroxidase detection antibody and TMB substrate (2BScientific). Developed plates were left to dry before spot counting using an AID ELISpot reader (Autoimmun Diagnostika GMBH). Positive epitopes for a given transgenic line were defined as those where more than half of assayed animals gave a greater number of spot-forming cells than 2 SD over the mean of the no protein/peptide control.
# (§3) Fig 1 Definition of HLA-DR specific T-cell epitopes in DR1 and DR4 transgenic mice. (a) HLA-DR1 (n = 5) and (b) HLA-DR4 (n = 6) mice were footpad primed with ssEB protein in combination with TiterMax® Gold adjuvant. Draining lymph node (DLN) cells were assayed by ELISpot at day 10 for interferon-γ (IFN-γ) T-cell responses to ssEB peptides and protein. A peptide was defined as containing a T-cell epitope for DR1 or DR4 HLA molecules if more than half of the mice assayed gave a greater number of spot-forming cells than 2 SD over the mean of the no peptide/protein control. The 2 SD value for each transgenic line is shown by a dotted line.
# [2] = system: draining lymph node cells of HLA-DR4 transgenic mice; test: Murine IFN-γ ELISpot, HLA-DR4 transgenic mice primed with SseB; conditions: mouse, in vivo
# Text: as §1, §2, §3
# Salmonella SL1344 = conditions: C57BL/6 mice, immunization with two doses; cited from earlier work
# Text: There have been a limited number of studies aimed at exploring candidates from the S. Typhi immunome for serodiagnostic, serodominant or protective credentials with respect to B-cell or T-cell immunity.[16]–[19] Some candidate antigens have been successfully deployed to induce protective immunity against challenge in mice; these antigens include OmpL, SseB, SseD and CirA.[16],[18],[19] Antigen arrays have been informative: an array of 2724 Salmonella enterica serovar Typhi antigens, selected on the basis of key terms such as ‘outer membrane’ or ‘chaperone’, representing over 63% of the proteom ...
molecule,measurement,setting,value
B1,IFN-γ ELISpot recall response / CD4 epitope in HLA-DR1 transgenic mice,[1],highly immunogenic
same,IFN-γ ELISpot recall response / CD4 epitope in HLA-DR4 transgenic mice,[2],relatively large response
same,protection from oral challenge (mean survival time and tissue bacterial burden),Salmonella SL1344,substantial protection
